Values of other authors as cited in PMC8773166.
pKd: −log10 of the molar value.

Biological target: calmodulin (UniProt P0DP23)

Q: With “NCX1 XIP peptide XIP (from UniProt P32418)” as the substance, how does the pKd read?
A: 6.70
